From patent publication US20190031785A1 (COMPASS THERAPEUTICS, published 2019)

Key:
[1] = molecular target: T1, Recombinant human CD137 Fc fusion protein (Sino Biological) (human, UniProt Q07011 24-186); assay: ForteBio Octet bio-layer interferometry, sequential steps on one sensor: Her2 loading, blocking antibody, PID7, PD-1 (printed 'PI-1'), CD137
T1 construct: not shown: Fc part of a bought fusion protein

[2] = molecular target: T2, Recombinant human PD-1 Fc fusion protein (Sino Biological) (human, UniProt Q15116 25-167); assay: BLI (ForteBio Octet); PD-1 Fc on Protein A sensors, 100 nM construct; column 'Affinity (nM)'
T2 construct: not shown: Fc part of a bought fusion protein
Description: (§1) Antigen binding of MIAC constructs were analyzed using ForteBio Octet. […] All antigens were reconstituted in PBS at the final concentration of 0.25 ug/ul. […] Association proceeded by dipping sensors in 100 nM MIAC constructs for 5 minutes and disassociation occurred in blank kinetics buffer for 5 minutes. For CD3 epsilon binding, antigen was immobilized on Ni-NTA sensors; association was performed in 50 nM MIAC constructs. Binding data were analyzed using ForteBio Data Analysis 9.0 software.

[3] = molecular target: T1, Recombinant human CD137 Fc fusion …; assay: BLI (ForteBio Octet); CD137 Fc on Protein A sensors, 100 nM construct; column 'Affinity (nM)'
Description: as §1

[4] = molecular target: T2, Recombinant human PD-1 Fc fusion …; assay: ForteBio Octet bio-layer interferometry, sequential steps on one sensor: Her2 loading, blocking antibody, PID92, PD-1 (printed 'PI-1'), CD137
[5] = molecular target: T2, Recombinant human PD-1 Fc fusion …; assay: BLI (ForteBio Octet); antigen-Fc on Protein A sensors, construct in solution; NB: no binding detected
Description: as §1

[6] = molecular target: T3, Recombinant human Her2 Fc fusion protein (Sino Biological) (human, UniProt P04626 23-652); assay: as above
T3 construct: not shown: Fc part of a bought fusion protein
Description: as §1

[7] = molecular target: T1, Recombinant human CD137 Fc fusion …; assay: as above
Description: as §1

T2 sequence (Q15116 25-167 limits assumed): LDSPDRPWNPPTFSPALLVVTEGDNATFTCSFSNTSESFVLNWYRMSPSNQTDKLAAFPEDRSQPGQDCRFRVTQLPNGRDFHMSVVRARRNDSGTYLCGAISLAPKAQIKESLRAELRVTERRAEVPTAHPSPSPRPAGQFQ

B1: PID-7 (bispecific Her2/PD-1 MIAC; pembrolizumab IgG1 with trastuzumab scFv at the heavy chain C-termini) (bispecific antibody)
heavy: not shown
light: EIVLTQSPATLSLSPGERATLSCRASKGVSTSGYSYLHWYQQKPGQAPRLLIYLASYLESGVPARFSGSGSGTDFTLTISSLEPEDFAVYYCQHSRDLPLTFGGGTKVEIKRTVAAPSVFIFPPSDEQLKSGTASVVCLLNNFYPREAKVQWKVDNALQSGNSQESVTEQDSKDSTYSLSSTLTLSKADYEKHKVYACEVTHQGLSSPVTKSFNRGEC
notes: also called α-Her2/α-PD-1
For B1, the binding result [1] was “no binding” and the Kd [2] was 0.12 nM.

B2: PID-92 (bispecific Her2/CD137 MIAC; urelumab IgG1 with trastuzumab scFv at the heavy chain C-termini) (bispecific antibody)
heavy: not shown
light: not shown
notes: also called α-Her2/α-CD137 MIAC; PID92 [Her2/CD137]
B2 was tested, and the Kd [3] was 0.23 nM and the binding result [4] was “no binding”.

B3: PID-90 (monospecific anti-CD137; urelumab Fab domain, human IgG1) (antibody, V domains shown)
VH: QVQLQQWGAGLLKPSETLSLTCAVYGGSFSGYYWSWIRQSPEKGLEWIGEINHGGYVTYNPSLESRVTISVDTSKNQFSLKLSSVTAADTAVYYCARDYGPGNYDWYFDLWGRGTLVTVSS
VL: EIVLTQSPATLSLSPGERATLSCRASQSVSSYLAWYQQKPGQAPRLLIYDASNRATGIPARFSGSGSGTDFTLTISSLEPEDFAVYYCQQRSNWPPALTFGGGTKVEIKR
notes: also called PID90 (CD137)
In the case of B3, the Kd [3] is reported as 0.7 nM, the binding result [5] is reported as “no binding (tested: 100 nM)” and the binding result [6] is reported as “no binding (tested: 100 nM)”.

B4: PID-2 (monospecific anti-PD-1; pembrolizumab Fab domain, human IgG1) (antibody, V domains shown)
VH: QVQLVQSGVEVKKPGASVKVSCKASGYTFTNYYMYWVRQAPGQGLEWMGGINPSNGGTNFNEKFKNRVTLTTDSSTTTAYMELKSLQFDDTAVYYCARRDYRFDMGFDYWGQGTTVTVSS
VL: EIVLTQSPATLSLSPGERATLSCRASKGVSTSGYSYLHWYQQKPGQAPRLLIYLASYLESGVPARFSGSGSGTDFTLTISSLEPEDFAVYYCQHSRDLPLTFGGGTKVEIKR
notes: also called PID2 (PD-1)
B4: no binding (tested: 100 nM) [7]; no binding (tested: 100 nM) [6].
